Where “and” joins values, the source holds several entries; their conditions need not be identical. Equal entries are not always repeated.
Key:
[1] = molecular target: endogenous Pkm2 (4T1 cells) (mouse (endogenous in 4T1)) (UniProt P52480); assay: cross-linking; DSS 250 μM added to collected cells in PBS pH 8.0, 30 min at 37 °C, quenched with 10 mM Tris-HCl pH 7.5; lysis and Western blot of PKM2; 4T1 cells (control or Islr-deleted) and A549 cells (with or without stable ISLR, H2O2 at indicated dose for 30 min)
[2] = molecular target: endogenous PKM2 (A549 cells) (human (endogenous in A549)) (UniProt P14618); assay: as above

Chain of endogenous Pkm2 (4T1 cells), P52480 1-531 (enzyme; other documents disagree on this pair) (P52480 whole entry): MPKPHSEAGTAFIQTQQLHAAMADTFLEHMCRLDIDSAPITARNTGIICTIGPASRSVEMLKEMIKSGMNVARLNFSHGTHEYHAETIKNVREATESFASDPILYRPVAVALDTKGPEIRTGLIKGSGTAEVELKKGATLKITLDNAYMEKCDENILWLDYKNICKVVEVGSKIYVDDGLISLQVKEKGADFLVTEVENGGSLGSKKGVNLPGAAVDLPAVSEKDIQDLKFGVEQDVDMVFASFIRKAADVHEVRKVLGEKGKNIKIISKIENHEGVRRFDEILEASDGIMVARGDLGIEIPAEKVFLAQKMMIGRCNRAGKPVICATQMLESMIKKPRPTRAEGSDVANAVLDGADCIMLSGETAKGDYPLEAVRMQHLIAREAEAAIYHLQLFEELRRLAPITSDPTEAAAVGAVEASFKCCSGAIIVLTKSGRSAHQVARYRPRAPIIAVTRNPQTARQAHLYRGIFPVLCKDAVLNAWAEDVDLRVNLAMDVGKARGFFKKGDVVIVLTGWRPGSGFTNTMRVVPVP
Chain of endogenous PKM2 (A549 cells), P14618 1-531 (enzyme; other documents disagree on this pair) (P14618 whole entry): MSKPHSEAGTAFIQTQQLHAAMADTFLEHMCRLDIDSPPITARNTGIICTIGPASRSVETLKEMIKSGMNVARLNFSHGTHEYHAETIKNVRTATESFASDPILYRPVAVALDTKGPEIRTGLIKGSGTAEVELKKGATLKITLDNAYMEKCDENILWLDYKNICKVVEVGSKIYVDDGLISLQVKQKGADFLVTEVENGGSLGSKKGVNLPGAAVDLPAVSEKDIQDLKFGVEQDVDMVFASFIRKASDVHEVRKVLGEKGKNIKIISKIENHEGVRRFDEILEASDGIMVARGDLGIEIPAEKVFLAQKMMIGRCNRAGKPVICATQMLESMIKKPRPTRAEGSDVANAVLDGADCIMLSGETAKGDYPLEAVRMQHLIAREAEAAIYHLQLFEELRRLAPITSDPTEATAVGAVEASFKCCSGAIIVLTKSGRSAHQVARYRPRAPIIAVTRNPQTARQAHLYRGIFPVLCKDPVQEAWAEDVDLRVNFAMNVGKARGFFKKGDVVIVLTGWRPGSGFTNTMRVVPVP

stoichiometry N [1] | stoichiometry N [2] | Substance
2 and 4 | – | endogenous Pkm2 (4T1 cells), P52480 1-531 (enzyme; other documents disagree on this pair)
– | 2 | endogenous PKM2 (A549 cells), P14618 1-531 (enzyme; other documents disagree on this pair)
